Among the data in patent US20140087995A1 (published 2014) are IC50 values, retold here.

Numbered stars: 1 amine (or outer) side, 2 acyl side, 3 side chain; on linkers, the order of the positions; unused ones are H or OH. Bridge positions count the residues as written; N and C are the ends. Side chains are listed from the residue outwards. Ends that are not written are not given here. * marks the point of attachment. C20 diacid = O=C(O)CCCCCCCCCCCCCCCCCCC(=O)*; γGlu = O=C(O)[C@H](CCC(=O)[*:2])N[*:1]; AEEA = NCCOCCOCC(=O)O

The test has as its target T1, human amylin receptor (human, UniProt P30988 25-474; O60896 24-148, limits assumed).
T1 construct: whole, on cells; Calcitonin receptor plus RAMP-3 gives the amylin 3(a) receptor; membranes of Amylin 3(a)/CRE-luc cells were used; also called hAmylin-R; hAmylinR
T1 sequence (looked up) 1: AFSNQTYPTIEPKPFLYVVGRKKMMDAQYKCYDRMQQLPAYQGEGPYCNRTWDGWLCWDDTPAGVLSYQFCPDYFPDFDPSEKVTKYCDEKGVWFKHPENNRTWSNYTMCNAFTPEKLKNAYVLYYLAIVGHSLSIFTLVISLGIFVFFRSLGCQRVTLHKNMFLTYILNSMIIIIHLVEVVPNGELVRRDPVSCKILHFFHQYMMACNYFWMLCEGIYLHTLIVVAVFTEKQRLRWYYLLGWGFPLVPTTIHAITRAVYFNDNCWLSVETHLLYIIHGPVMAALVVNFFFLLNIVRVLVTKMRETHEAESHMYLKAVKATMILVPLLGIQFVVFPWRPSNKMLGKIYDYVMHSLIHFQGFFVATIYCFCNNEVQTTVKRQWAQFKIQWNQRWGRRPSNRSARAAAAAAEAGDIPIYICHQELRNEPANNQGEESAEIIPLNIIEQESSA
T1 sequence (looked up) 2: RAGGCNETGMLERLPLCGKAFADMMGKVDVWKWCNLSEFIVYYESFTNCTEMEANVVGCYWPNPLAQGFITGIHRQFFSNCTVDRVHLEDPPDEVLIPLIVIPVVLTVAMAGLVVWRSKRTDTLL
Nature of the test: SPA competition binding, displacement of 125I-rat amylin from membranes with human amylin 3(a) receptor (Assay V). The method, boiled down:
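Membranes from BHK Amylin 3(a)/CRE-luc cells (35 ng/μL final) were mixed with SPA beads and test compounds in 50 mM Hepes pH 7.4 with 1 mM CaCl2, 5 mM MgCl₂, 0.1% OA and 0.02% Tween20. Incubation ran 120 min at 25° C with shaking; IC₅₀ came from one-site competition fitting.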
For orientation: In a radioligand displacement assay an active substance lowers the binding of a labelled ligand.

B1: N^ε1-[2-[2-[2-[[(4S)-4-carboxy-4-(19-carboxynonadecanoylamino)butanoyl]amino]ethoxy]ethoxy]acetyl]-[Arg17,Pro21,Pro27]-h-amylin (peptide)
peptide: K([AEEA-γGlu-C20 diacid])CNTATCATQRLANFLRHSSPNFGAIPSSTNVGSNTY-NH2
modifications: disulfide 2-7; N-terminus assumed
SMILES: CC[C@H](C)[C@H](NC(=O)[C@H](C)NC(=O)CNC(=O)[C@H](Cc1ccccc1)NC(=O)[C@H](CC(N)=O)NC(=O)[C@@H]1CCCN1C(=O)[C@H](CO)NC(=O)[C@H](CO)NC(=O)[C@H](Cc1c[nH]cn1)NC(=O)[C@H](CCCNC(=N)N)NC(=O)[C@H](CC(C)C)NC(=O)[C@H](Cc1ccccc1)NC(=O)[C@H](CC(N)=O)NC(=O)[C@H](C)NC(=O)[C@H](CC(C)C)NC(=O)[C@H](CCCNC(=N)N)NC(=O)[C@H](CCC(N)=O)NC(=O)[C@@H](NC(=O)[C@H](C)NC(=O)[C@@H]1CSSC[C@H](NC(=O)[C@@H](N)CCCCNC(=O)COCCOCCNC(=O)CC[C@H](NC(=O)CCCCCCCCCCCCCCCCCCC(=O)O)C(=O)O)C(=O)N[C@@H](CC(N)=O)C(=O)N[C@@H]([C@@H](C)O)C(=O)N[C@@H](C)C(=O)N[C@@H]([C@@H](C)O)C(=O)N1)[C@@H](C)O)C(=O)N1CCC[C@H]1C(=O)N[C@@H](CO)C(=O)N[C@@H](CO)C(=O)N[C@H](C(=O)N[C@@H](CC(N)=O)C(=O)N[C@H](C(=O)NCC(=O)N[C@@H](CO)C(=O)N[C@@H](CC(N)=O)C(=O)N[C@H](C(=O)N[C@@H](Cc1ccc(O)cc1)C(N)=O)[C@@H](C)O)C(C)C)[C@@H](C)O
notes: also called 17R, 21P, 27P
The IC50 is the concentration at which inhibition is half-maximal. Read a low IC50 as greater potency. Consider B1, for which the IC50 turned out to be 0.427 nM.

B2: N^ε1-[2-[2-[2-(19-carboxynonadecanoylamino)ethoxy]ethoxy]acetyl]-[Arg17,Pro21,Pro27]-h-amylin (peptide)
peptide: K([AEEA-C20 diacid])CNTATCATQRLANFLRHSSPNFGAIPSSTNVGSNTY-NH2
modifications: disulfide 2-7; N-terminus assumed
SMILES: CC[C@H](C)[C@H](NC(=O)[C@H](C)NC(=O)CNC(=O)[C@H](Cc1ccccc1)NC(=O)[C@H](CC(N)=O)NC(=O)[C@@H]1CCCN1C(=O)[C@H](CO)NC(=O)[C@H](CO)NC(=O)[C@H](Cc1c[nH]cn1)NC(=O)[C@H](CCCNC(=N)N)NC(=O)[C@H](CC(C)C)NC(=O)[C@H](Cc1ccccc1)NC(=O)[C@H](CC(N)=O)NC(=O)[C@H](C)NC(=O)[C@H](CC(C)C)NC(=O)[C@H](CCCNC(=N)N)NC(=O)[C@H](CCC(N)=O)NC(=O)[C@@H](NC(=O)[C@H](C)NC(=O)[C@@H]1CSSC[C@H](NC(=O)[C@@H](N)CCCCNC(=O)COCCOCCNC(=O)CCCCCCCCCCCCCCCCCCC(=O)O)C(=O)N[C@@H](CC(N)=O)C(=O)N[C@@H]([C@@H](C)O)C(=O)N[C@@H](C)C(=O)N[C@@H]([C@@H](C)O)C(=O)N1)[C@@H](C)O)C(=O)N1CCC[C@H]1C(=O)N[C@@H](CO)C(=O)N[C@@H](CO)C(=O)N[C@H](C(=O)N[C@@H](CC(N)=O)C(=O)N[C@H](C(=O)NCC(=O)N[C@@H](CO)C(=O)N[C@@H](CC(N)=O)C(=O)N[C@H](C(=O)N[C@@H](Cc1ccc(O)cc1)C(N)=O)[C@@H](C)O)C(C)C)[C@@H](C)O
notes: also called 17R, 21P, 27P
Molecule B2 gave an IC50 of 0.076 nM.

B3: N^ε1-[(4S)-4-carboxy-4-[[(4S)-4-carboxy-4-(19-carboxynonadecanoylamino)butanoyl]amino]butanoyl]-[Ser14,Arg17,Pro21,Pro27,Pro34,Glu35]-h-amylin (peptide)
peptide: K([γGlu-γGlu-C20 diacid])CNTATCATQRLASFLRHSSPNFGAIPSSTNVGPETY-NH2
modifications: disulfide 2-7; N-terminus assumed
SMILES: CC[C@H](C)[C@H](NC(=O)[C@H](C)NC(=O)CNC(=O)[C@H](Cc1ccccc1)NC(=O)[C@H](CC(N)=O)NC(=O)[C@@H]1CCCN1C(=O)[C@H](CO)NC(=O)[C@H](CO)NC(=O)[C@H](Cc1c[nH]cn1)NC(=O)[C@H](CCCNC(=N)N)NC(=O)[C@H](CC(C)C)NC(=O)[C@H](Cc1ccccc1)NC(=O)[C@H](CO)NC(=O)[C@H](C)NC(=O)[C@H](CC(C)C)NC(=O)[C@H](CCCNC(=N)N)NC(=O)[C@H](CCC(N)=O)NC(=O)[C@@H](NC(=O)[C@H](C)NC(=O)[C@@H]1CSSC[C@H](NC(=O)[C@@H](N)CCCCNC(=O)CC[C@H](NC(=O)CC[C@H](NC(=O)CCCCCCCCCCCCCCCCCCC(=O)O)C(=O)O)C(=O)O)C(=O)N[C@@H](CC(N)=O)C(=O)N[C@@H]([C@@H](C)O)C(=O)N[C@@H](C)C(=O)N[C@@H]([C@@H](C)O)C(=O)N1)[C@@H](C)O)C(=O)N1CCC[C@H]1C(=O)N[C@@H](CO)C(=O)N[C@@H](CO)C(=O)N[C@H](C(=O)N[C@@H](CC(N)=O)C(=O)N[C@H](C(=O)NCC(=O)N1CCC[C@H]1C(=O)N[C@@H](CCC(=O)O)C(=O)N[C@H](C(=O)N[C@@H](Cc1ccc(O)cc1)C(N)=O)[C@@H](C)O)C(C)C)[C@@H](C)O
notes: also called 14S, 17R, 21P, 27P, 34P, 35E
On to B3, for which the IC50 turned out to be 0.076 nM.

B4: N^ε1N^ε1-[(4S)-4-carboxy-4-(19-carboxynonadecanoylamino)butanoyl]-[His14,Arg17,Pro21,Pro27,Pro34]-h-amylin (peptide)
peptide: K([γGlu-C20 diacid])CNTATCATQRLAHFLRHSSPNFGAIPSSTNVGPNTY-NH2
modifications: disulfide 2-7; N-terminus assumed
SMILES: CC[C@H](C)[C@H](NC(=O)[C@H](C)NC(=O)CNC(=O)[C@H](Cc1ccccc1)NC(=O)[C@H](CC(N)=O)NC(=O)[C@@H]1CCCN1C(=O)[C@H](CO)NC(=O)[C@H](CO)NC(=O)[C@H](Cc1c[nH]cn1)NC(=O)[C@H](CCCNC(=N)N)NC(=O)[C@H](CC(C)C)NC(=O)[C@H](Cc1ccccc1)NC(=O)[C@H](Cc1c[nH]cn1)NC(=O)[C@H](C)NC(=O)[C@H](CC(C)C)NC(=O)[C@H](CCCNC(=N)N)NC(=O)[C@H](CCC(N)=O)NC(=O)[C@@H](NC(=O)[C@H](C)NC(=O)[C@@H]1CSSC[C@H](NC(=O)[C@@H](N)CCCCNC(=O)CC[C@H](NC(=O)CCCCCCCCCCCCCCCCCCC(=O)O)C(=O)O)C(=O)N[C@@H](CC(N)=O)C(=O)N[C@@H]([C@@H](C)O)C(=O)N[C@@H](C)C(=O)N[C@@H]([C@@H](C)O)C(=O)N1)[C@@H](C)O)C(=O)N1CCC[C@H]1C(=O)N[C@@H](CO)C(=O)N[C@@H](CO)C(=O)N[C@H](C(=O)N[C@@H](CC(N)=O)C(=O)N[C@H](C(=O)NCC(=O)N1CCC[C@H]1C(=O)N[C@@H](CC(N)=O)C(=O)N[C@H](C(=O)N[C@@H](Cc1ccc(O)cc1)C(N)=O)[C@@H](C)O)C(C)C)[C@@H](C)O
notes: also called 14H, 17R, 21P, 27P, 34P
As to B4, the IC50 was 0.09 nM.

B5: N^ε1-[(4S)--4-carboxy-4-(19-carboxynonadecanoylamino)butanoyl]-[Glu14,Arg17,Pro21,Pro27,Pro37]-h-amylin (peptide)
peptide: K([γGlu-C20 diacid])CNTATCATQRLAEFLRHSSPNFGAIPSSTNVGSNTP-NH2
modifications: disulfide 2-7; N-terminus assumed
SMILES: CC[C@H](C)[C@H](NC(=O)[C@H](C)NC(=O)CNC(=O)[C@H](Cc1ccccc1)NC(=O)[C@H](CC(N)=O)NC(=O)[C@@H]1CCCN1C(=O)[C@H](CO)NC(=O)[C@H](CO)NC(=O)[C@H](Cc1c[nH]cn1)NC(=O)[C@H](CCCNC(=N)N)NC(=O)[C@H](CC(C)C)NC(=O)[C@H](Cc1ccccc1)NC(=O)[C@H](CCC(=O)O)NC(=O)[C@H](C)NC(=O)[C@H](CC(C)C)NC(=O)[C@H](CCCNC(=N)N)NC(=O)[C@H](CCC(N)=O)NC(=O)[C@@H](NC(=O)[C@H](C)NC(=O)[C@@H]1CSSC[C@H](NC(=O)[C@@H](N)CCCCNC(=O)CC[C@H](NC(=O)CCCCCCCCCCCCCCCCCCC(=O)O)C(=O)O)C(=O)N[C@@H](CC(N)=O)C(=O)N[C@@H]([C@@H](C)O)C(=O)N[C@@H](C)C(=O)N[C@@H]([C@@H](C)O)C(=O)N1)[C@@H](C)O)C(=O)N1CCC[C@H]1C(=O)N[C@@H](CO)C(=O)N[C@@H](CO)C(=O)N[C@H](C(=O)N[C@@H](CC(N)=O)C(=O)N[C@H](C(=O)NCC(=O)N[C@@H](CO)C(=O)N[C@@H](CC(N)=O)C(=O)N[C@H](C(=O)N1CCC[C@H]1C(N)=O)[C@@H](C)O)C(C)C)[C@@H](C)O
notes: also called 14E, 17R, 21P, 27P, 37P
Molecule B5 gave an IC50 of 0.142 nM.

B6: N{Alpha-1}-[(4S)-4-carboxy-4-(19-carboxynonadecanoylamino)butanoyl]-[Glu14,Arg17,Pro21,Pro27,Lys34]-h-amylin (peptide)
peptide: {C20 diacid-γGlu}-KCNTATCATQRLAEFLRHSSPNFGAIPSSTNVGKNTY-NH2
modifications: disulfide 2-7
SMILES: CC[C@H](C)[C@H](NC(=O)[C@H](C)NC(=O)CNC(=O)[C@H](Cc1ccccc1)NC(=O)[C@H](CC(N)=O)NC(=O)[C@@H]1CCCN1C(=O)[C@H](CO)NC(=O)[C@H](CO)NC(=O)[C@H](Cc1c[nH]cn1)NC(=O)[C@H](CCCNC(=N)N)NC(=O)[C@H](CC(C)C)NC(=O)[C@H](Cc1ccccc1)NC(=O)[C@H](CCC(=O)O)NC(=O)[C@H](C)NC(=O)[C@H](CC(C)C)NC(=O)[C@H](CCCNC(=N)N)NC(=O)[C@H](CCC(N)=O)NC(=O)[C@@H](NC(=O)[C@H](C)NC(=O)[C@@H]1CSSC[C@H](NC(=O)[C@H](CCCCN)NC(=O)CC[C@H](NC(=O)CCCCCCCCCCCCCCCCCCC(=O)O)C(=O)O)C(=O)N[C@@H](CC(N)=O)C(=O)N[C@@H]([C@@H](C)O)C(=O)N[C@@H](C)C(=O)N[C@@H]([C@@H](C)O)C(=O)N1)[C@@H](C)O)C(=O)N1CCC[C@H]1C(=O)N[C@@H](CO)C(=O)N[C@@H](CO)C(=O)N[C@H](C(=O)N[C@@H](CC(N)=O)C(=O)N[C@H](C(=O)NCC(=O)N[C@@H](CCCCN)C(=O)N[C@@H](CC(N)=O)C(=O)N[C@H](C(=O)N[C@@H](Cc1ccc(O)cc1)C(N)=O)[C@@H](C)O)C(C)C)[C@@H](C)O
notes: also called 14E, 17R, 21P, 27P, 34K
Turning to B6, the IC50 was found to be 0.403 nM.
